The supplement of paper PMC10126150
± gives the standard deviation of the averaged measurements.

Test system: ATP
Experiment: switch fluorescence ratio, 500 uM ATP over buffer (Cy3 cluster intensity, sum of 5 cycles each) (fold (ratio)); higher = stronger signal-on switching upon ATP binding; sequences stand for … in TCGTCGGCAGCGTCAGATGTGTATAAGAGACAGTTTTTTTTTTTTTTTTTTTTTTTTT…TC
Conditions: aptamer strand: ATP DNA aptamer (quencher-CACCTGGGGGAGTATTGCGGAGGAAGG + anchor), 100 nM annealed; ATP concentration: 500 uM
Procedure, shortened: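 Five buffer/ATP imaging cycles were run on Cy3-labelled switching-strand clusters on a modified Illumina MiSeq flow-cell, with NaOH stripping and re-annealing between cycles. In each cycle, clusters annealed to 100 nM quencher-labelled ATP aptamer were imaged in selection buffer, then after 15 min with 500 uM ATP at 22 °C. Per cluster, the fluorescence ratio is summed target-cycle over summed buffer-cycle Cy3 intensity, averaged per switch-domain sequence. Only clusters within 100-1000 RFU were kept.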
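Also: ATP exposure 15 min at 22 °C before imaging.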

| Sequence | switch fluorescence ratio |
| --- | --- |
| AGTTGGAGGA | 0.991 ± 0.015 |
| AGTTGGGGAT | 0.986 ± 0.04 |
| AGTTGGGGGT | 0.998 ± 0.025 |
| AGTTGGGGTG | 0.989 ± 0.034 |
| AGTTGGTAAT | 0.963 ± 0.06 |
| AGTTGGTTAG | 1.004 ± 0.005 |
| AGTTGTCTCG | 1.01 ± 0.058 |
| AGTTGTTGGA | 1 ± 0.047 |
| AGTTTAAAAC | 1.02 ± 0.0077 |
| AGTTTACTGG | 0.9626 ± 0.0022 |
| AGTTTACTGT | 1.02 ± 0.072 |
| AGTTTATGTG | 0.9746 ± 0.0073 |
| AGTTTCCGGA | 0.992 ± 0.016 |
| AGTTTCTTAC | 1.01 ± 0.024 |
| AGTTTGAAGG | 0.9894 ± 0.0073 |
| AGTTTGAGTA | 1.01 ± 0.027 |
| AGTTTGATGT | 1 ± 0.023 |
| AGTTTGCGGG | 1.006 ± 0.0094 |
| AGTTTGGATA | 0.97 ± 0.028 |
| AGTTTGGGGA | 0.979 ± 0.015 |
| AGTTTGGGT | 0.985 ± 0.032 |
| AGTTTGTACG | 1.04 ± 0.024 |
| AGTTTGTTCT | 0.999 ± 0.01 |
| AGTTTTCATG | 1.02 ± 0.017 |
| AGTTTTCGTG | 0.99 ± 0.03 |

| Sequence | switch fluorescence ratio |
| --- | --- |
| AGTTTTGCGC | 0.972 ± 0.034 |
| AGTTTTGGCG | 0.973 ± 0.0047 |
| AGTTTTGTTA | 1.02 ± 0.019 |
| AGTTTTGTTC | 1.01 ± 0.019 |
| AGTTTTGTTG | 0.989 ± 0.036 |
| AGTTTTTACC | 1.01 ± 0.046 |
| AGTTTTTCAA | 0.9984 ± 0.0073 |
| ATAAAAACCG | 1.01 ± 0.053 |
| ATAAAAAGCA | 0.995 ± 0.04 |
| ATAAAAAGGT | 0.987 ± 0.013 |
| ATAAAAAGTT | 0.984 ± 0.034 |
| ATAAAAGCTT | 1.03 ± 0.014 |
| ATAAAAGGGG | 1.001 ± 0.0097 |
| ATAAAAGTCC | 0.979 ± 0.017 |
| ATAAAATTA | 1.011 ± 0.01 |
| ATAAAGAAGT | 1.007 ± 0.0052 |
| ATAAAGATGG | 0.95924 ± 0.00085 |
| ATAAAGCATA | 1.03 ± 0.026 |
| ATAAAGGGAT | 1 ± 0.034 |
| ATAAAGGTCG | 1.06 ± 0.1 |
| ATAACAAATT | 1.03 ± 0.031 |
| ATAACAGGGC | 0.952 ± 0.037 |
| ATAACGATCT | 1.04 ± 0.022 |
| ATAACGGCCT | 1.007 ± 0.0099 |
| ATAACTTTTT | 0.992 ± 0.054 |

| Sequence | switch fluorescence ratio |
| --- | --- |
| ATAAGAAGTG | 1.05 ± 0.072 |
| ATAAGACTGG | 0.9819 ± 0.0053 |
| ATAAGAGACT | 1.01 ± 0.03 |
| ATAAGATATG | 0.999 ± 0.012 |
| ATAAGATTAC | 1.012 ± 0.0091 |
| ATAAGCCTGG | 1.01 ± 0.041 |
| ATAAGCGAAG | 0.993 ± 0.028 |
| ATAAGCGCAG | 1.008 ± 7e-05 |
| ATAAGGAGTG | 0.996 ± 0.021 |
| ATAAGGATCT | 1.03 ± 0.016 |
| ATAAGGCAGG | 0.999 ± 0.024 |
| ATAAGGGATG | 0.998 ± 0.017 |
| ATAAGGGGTT | 0.993 ± 0.039 |
| ATAAGTGATA | 1.02 ± 0.025 |
| ATAAGTGCGA | 0.9826 ± 0.002 |
| ATAAGTGTCT | 1.02 ± 0.011 |
| ATAAGTTAGT | 0.989 ± 0.016 |
| ATAATAATGT | 1.002 ± 0.0045 |
| ATAATAATTT | 1.02 ± 0.011 |
| ATAATACGCC | 1.17 ± 0.013 |
| ATAATAGGGA | 0.982 ± 0.014 |
| ATAATATTTG | 0.985 ± 0.015 |
| ATAATGATGT | 0.97 ± 0.026 |
| ATAATGATTG | 0.994 ± 0.016 |
| ATAATTCGGG | 1 ± 0.049 |

| Sequence | switch fluorescence ratio |
| --- | --- |
| ATAATTCGTG | 1.01 ± 0.027 |
| ATAATTGGGA | 0.99 ± 0.041 |
| ATAATTGTTT | 0.984 ± 0.042 |
| ATAATTTAGC | 0.961 ± 0.02 |
| ATACAAAA | 1.02 ± 0.048 |
| ATACAAGACT | 1.06 ± 0.03 |
| ATACAATAGA | 1.004 ± 0.0087 |
| ATACACAATT | 1.08 ± 0.054 |
| ATACAGGGTG | 1.24 ± 0.019 |
| ATACAGGTCT | 1.03 ± 0.011 |
| ATACATATTT | 1.035 ± 0.0075 |
| ATACATGTAG | 0.9845 ± 0.0047 |
| ATACATTTGG | 0.999 ± 0.014 |
| ATACCAGGGG | 1.08 ± 0.19 |
| ATACCATCGG | 0.981 ± 0.024 |
| ATACCATGGT | 0.992 ± 0.053 |
| ATACCGAGTA | 1.01 ± 0.049 |
| ATACCGGATT | 1.01 ± 0.046 |
| ATACCTTATG | 1 ± 0.029 |
| ATACCTTCGT | 1.692 ± 0.012 |
| ATACGACTTA | 1.04 ± 0.014 |
| ATACGATGAT | 1.04 ± 0.017 |
| ATACGATGTA | 0.986 ± 0.014 |
| ATACGGGGGG | 0.989 ± 0.017 |
| ATACGGGTGC | 1.26 ± 0.043 |

| Sequence | switch fluorescence ratio |
| --- | --- |
| ATACGTGGTG | 1.09 ± 0.086 |
| ATACGTTATT | 1.21 ± 0.057 |
| ATACTATCTA | 1.03 ± 0.017 |
| ATACTCCGGA | 1.16 ± 0.055 |
| ATACTCGTGG | 1.01 ± 0.042 |
| ATACTCGTTA | 1.01 ± 0.024 |
| ATACTGTGTT | 1.014 ± 0.0084 |
| ATACTTCATT | 1.03 ± 0.032 |
| ATAGAAGGGA | 0.991 ± 0.044 |
| ATAGAATGAT | 0.995 ± 0.017 |
| ATAGAATGCG | 0.9955 ± 0.0012 |
| ATAGAATTAA | 0.989 ± 0.013 |
| ATAGAATTGT | 0.9803 ± 0.0091 |
| ATAGACGTCC | 0.993 ± 0.015 |
| ATAGAGAGGT | 1.01 ± 0.012 |
| ATAGAGCTTT | 1.07 ± 0.085 |
| ATAGAGGATA | 0.9861 ± 0.0073 |
| ATAGATAGCC | 0.96 ± 0.015 |
| ATAGATATAG | 1.027 ± 0.0096 |
| ATAGATGTTG | 0.9812 ± 0.0069 |
| ATAGCATACG | 1.28 ± 0.047 |
| ATAGCATGTT | 1 ± 0.038 |
| ATAGCGGAAT | 1.007 ± 0.01 |
| ATAGCGGGGG | 0.998 ± 0.031 |
| ATAGCGTATT | 0.998 ± 0.049 |

| Sequence | switch fluorescence ratio |
| --- | --- |
| ATAGCTAACT | 1.02 ± 0.022 |
| ATAGCTATAA | 1.003 ± 0.0029 |
| ATAGGAAAGG | 0.999 ± 0.035 |
| ATAGGAAATC | 2.74 ± 0.75 |
| ATAGGACGCA | 1.265 ± 0.0027 |
| ATAGGAGGGT | 0.989 ± 0.014 |
| ATAGGCATGC | 1.06 ± 0.067 |
| ATAGGGAGTA | 0.979 ± 0.061 |
| ATAGGGATTC | 1.02 ± 0.038 |
| ATAGGGCTTG | 0.9746 ± 0.005 |
| ATAGGGGA | 0.989 ± 0.018 |
| ATAGGGGAAA | 0.987 ± 0.024 |
| ATAGGGGCAT | 1 ± 0.025 |
| ATAGGGGCGC | 1 ± 0.047 |
| ATAGGGGGAT | 0.993 ± 0.015 |
| ATAGGGGGGG | 1.03 ± 0.025 |
| ATAGGGTGGG | 1 ± 0.022 |
| ATAGGTATTC | 0.976 ± 0.026 |
| ATAGGTCTCG | 1 ± 0.031 |
| ATAGGTGGTT | 0.994 ± 0.019 |
| ATAGGTTCGT | 0.99 ± 0.012 |
| ATAGGTTGTT | 0.973 ± 0.016 |
| ATAGGTTTTG | 0.9864 ± 0.004 |
| ATAGTAAAAC | 1.05 ± 0.02 |
| ATAGTAACAC | 1.06 ± 0.038 |

| Sequence | switch fluorescence ratio |
| --- | --- |
| ATAGTAGGTC | 1.048 ± 0.0015 |
| ATAGTATCTT | 1 ± 0.021 |
| ATAGTATGTA | 1.01 ± 0.031 |
| ATAGTCCTGG | 0.963 ± 0.019 |
| ATAGTGGACA | 0.9867 ± 0.0019 |
| ATAGTGGGGT | 0.987 ± 0.021 |
| ATAGTGGGTG | 0.997 ± 0.037 |
| ATAGTGGTGC | 0.958 ± 0.067 |
| ATAGTGTTGA | 1.03 ± 0.011 |
| ATAGTTAAAT | 0.943 ± 0.089 |
| ATAGTTCTGG | 0.992 ± 0.018 |
| ATAGTTGGA | 0.953 ± 0.019 |
| ATAGTTTAGG | 1.016 ± 0.0076 |
| ATATAACATT | 1.05 ± 0.018 |
| ATATAAGTAG | 1.03 ± 0.014 |
| ATATACTAAT | 1.02 ± 0.038 |
| ATATACTACA | 1.06 ± 0.022 |
| ATATAGAATA | 1.03 ± 0.024 |
| ATATAGGGGC | 1.02 ± 0.046 |
| ATATAGGTTG | 0.974 ± 0.051 |
| ATATATGCCG | 0.985 ± 0.044 |
| ATATATGTCG | 1.07 ± 0.049 |
| ATATATGTGG | 0.981 ± 0.057 |
| ATATATTGAG | 0.995 ± 0.019 |
| ATATATTGCG | 1.016 ± 0.0031 |

| Sequence | switch fluorescence ratio |
| --- | --- |
| ATATATTGGT | 0.9922 ± 0.0046 |
| ATATATTTAT | 1.022 ± 0.0085 |
| ATATCAAGGA | 1 ± 0.029 |
| ATATCAGGGC | 0.961 ± 0.034 |
| ATATCCAATA | 0.99 ± 0.036 |
| ATATCCGACA | 1.054 ± 0.0056 |
| ATATCCTAGT | 0.987 ± 0.029 |
| ATATCCTTGG | 0.984 ± 0.026 |
| ATATCGGGGT | 1.001 ± 0.0045 |
| ATATGAAGGA | 0.993 ± 0.013 |
| ATATGAAGGT | 0.9893 ± 0.0047 |
| ATATGGCTTT | 1.02 ± 0.013 |
| ATATGGGTAC | 1.034 ± 0.0052 |
| ATATGGGTTC | 1 ± 0.026 |
| ATATGGTCGT | 0.998 ± 0.017 |
| ATATGGTTGG | 0.958 ± 0.016 |
| ATATGTAAAC | 1 ± 0.047 |
| ATATGTATGC | 0.97875 ± 3.4e-05 |
| ATATGTGGTA | 1.01 ± 0.031 |
| ATATGTTAGT | 0.988 ± 0.011 |
| ATATTAAAAC | 0.988 ± 0.034 |
| ATATTACTGC | 1.07 ± 0.02 |
| ATATTAGGGA | 1 ± 0.0079 |
| ATATTAGTTA | 0.997 ± 0.05 |
| ATATTCCGTT | 0.968 ± 0.018 |
